Results: patent publication US20050265970

How the values were obtained:
[1] = target: T1, His6-Gadd45β (full-length human Gadd45β purified from E. coli), O75293
T1 chain: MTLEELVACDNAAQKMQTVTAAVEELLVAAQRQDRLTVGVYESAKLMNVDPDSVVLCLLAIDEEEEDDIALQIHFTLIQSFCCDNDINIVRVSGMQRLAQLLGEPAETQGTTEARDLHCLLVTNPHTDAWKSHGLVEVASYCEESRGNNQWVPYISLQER

[2] = target: Gadd45β-derived peptide 2 (pure synthetic peptide, sequence in FIG. 37C)
[3] = target: T2, GST-Gadd45β (full-length murine Gadd45β directly fused to GST), P22339
T2 chain: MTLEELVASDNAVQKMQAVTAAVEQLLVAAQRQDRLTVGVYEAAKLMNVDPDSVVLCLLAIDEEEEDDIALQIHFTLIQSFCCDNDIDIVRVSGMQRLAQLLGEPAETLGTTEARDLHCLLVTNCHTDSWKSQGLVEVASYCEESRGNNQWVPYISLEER

[4] = target: Gadd45β-derived peptide 8 (pure synthetic peptide, sequence in FIG. 37C)

B1: FLAG-MKK7 (FLAG-tagged JNKK2) immunoprecipitated from 293 cells (protein)
chain: MAASSLEQKLSRLEAKLKQENREARRRIDLNLDISPQRPRPTLQLPLANDGGSRSPSSESSPQHPTPPARPRHMLGLPSTLFTPRSMESIEIDQKLQEIMKQTGYLTIGGQRYQAEINDLENLGEMGSGTCGQVWKMRFRKTGHVIAVKQMRRSGNKEENKRILMDLDVVLKSHDCPYIVQCFGTFITNTDVFIAMELMGTCAEKLKKRMQGPIPERILGKMTVAIVKALYYLKEKHGVIHRDVKPSNILLDERGQIKLCDFGISGRLVDSKAKTRSAGCAAYMAPERIDPPDPTKPDYDIRADVWSLGISLVELATGQFPYKNCKTDFEVLTKVLQEEPPLLPGHMGFSGDFQSFVKDCLTKDHRKRPKYNKLLEHSFIKRYETLEVDVASWFKDVMAKTESPRTSGVLSQPHLPFFR
For B1, the “GST-JNK1 phosphorylation by MKK7 (kinase assay)” value [1] was “Both Gadd45β polypeptides, but neither GST nor His6-EF3, blocked GST-JNK1 phosphorylation by MKK7, in a dose-dependent manner”, the “JNKK2 kinase activity in vitro (phosphorylation of GST-JNK1)” value [1] was “both GST-Gadd45β and His6-Gadd45β effectively suppressed JNKK2 activity, in vitro, even at the lowest concentrations that were tested” and the “MKK7 kinase assay with GST-JNK1 substrate” value [2] was “the amino acid regions contained in the overlapping, Gadd45β-derived peptides 2 and 8 are sufficient to recapitulate most of the inhibitory activity of Gadd45β on MKK7”. For the same protein, the “GST-JNK1 phosphorylation by MKK7 (kinase assay)” value [3] was “Both Gadd45β polypeptides, but neither GST nor His6-EF3, blocked GST-JNK1 phosphorylation by MKK7, in a dose-dependent manner”, the “JNKK2 kinase activity in vitro (phosphorylation of GST-JNK1)” value [3] was “both GST-Gadd45β and His6-Gadd45β effectively suppressed JNKK2 activity, in vitro, even at the lowest concentrations that were tested” and the “MKK7 kinase assay with GST-JNK1 substrate” value [4] was “the amino acid regions contained in the overlapping, Gadd45β-derived peptides 2 and 8 are sufficient to recapitulate most of the inhibitory activity of Gadd45β on MKK7”.
